Patent publication US20240190986A1

B1: M005 (VHH)
VHH: EVQLVESGGGWVQSGGSLRLACAASGSSFGLNVVGWYRQAPDKQRELVASIGNGGRTTDYADSVKGRFTISSDNAKNTVFLQMNDLKPEDTAVYYCHLRASVTKGYWGQGTQVTVSS
B2: M010 (VHH)
VHH: QVQLVESGGGLVQAGGSLRLSCAASGSVSSINAMGWYRQGTGEVRKLVATMGSGGNTYYADSVKGRFFITRDYSKNTVSLQMNNLTPEDSATYYCAADRFGASIHEVDYWGKGTLVTVSS
B3: M012 (VHH)
VHH: QVQLVESGGDLVQTGGSLRLSCVVSGSTFAINAMGWYRQAPGKERELVAAISSGGDSTHYADDVKGRFTISRDNAENTMYLQMKSLKPEDTAVYVCNARGCRDFHNPQALCVLRDYWGQGTQVTVSS
B4: M032 (VHH)
VHH: EVQLVESGGGSVQAGGSLKISCAASGSVIDIGAMGWYRHITEKERKLVATINAGGNTYYADSVKGRFTISRDNAKYTVYLQMNSLKPEDTAMYYCAAEDINYTGTEAYYWGQGTQVTVSS
B5: M044 (VHH)
VHH: QVQVVESGGGFVQAGGSLRLSCAASTPIISIAYMGWYRQISEKERQLVATINSGGKTYYADSVKGRFTISRDNAKNTLYLQMNMLKPEDTGMYYCAASNKDYNDYDPDWGQGTQVTVSS
B6: M047 (VHH)
VHH: QVQLVETGGGSVQAGGSLRLSCAASGSIASIDAMGWYRQVPGKEWERELVATISSSNSDNKYYKDSVKGRFTISTNIAKNTWYLQMNNLKPEDTAMYYCAAEDYDTKDRFWGQGTQVTVSS
B7: M001 (VHH)
VHH: EVQLVESGGGLVQAGGSLRLSCAASGSIFNINAMGWYRQAPGKEWERELVATISSSNSDNTYYKDSVKGRFTISTNTAKNTWYLQMNSLKPEDTAMYYCAAENYDRKDRYWGQGTQVTVSS
B8: M050 (VHH)
VHH: EVQLQESGGGLVQAGGSLRLSCAASGAVSSINAMGWYRQTPEKVRKLVATMGSGGNTYYADSVKGRFTISRDYAKNTVALQMNNLIPEDTAVYYCAADKFGADIHEVDYWGKGTLVTVSS
B9: M118 (VHH)
VHH: EVQLVESGGGLVQAGGSLTLSCAASEHTFTIDAMGYYRQIPGRRNERQLVAAAGRTGTTYYNDAVKDRFTIYRDTSKETIILQMNNLRPEDTTMYYCAVERYSDQSRFFGPGTQVTVSS
B10: M119 (VHH)
VHH: EVQLVESGGGLVQPGGSLRLSCVASGSDLSFDAMGWYRQFSATVRERQLVVATSRDGRIYYGDSVKGRFTASRDNLKNSVDLEMNNLKPEDTAIYYCAAGDDPKNYDWGPGTQVTVSS
B11: M126 (VHH)
VHH: EVQLVESGGGWVQSGGSLRLACAASGDSFGLNVVGWYRLAPDKQRELVASIGNGGRTTDYADSVKGRFTISSDNAKNTVFLQMNDLKPEDTAMYYCHLRVSVTEGYWGQGTQVTVSS
B12: M129 (VHH)
VHH: QVQLVESGGGSAQAGGSLILSCVASANLFTIDALGWYRQAPGPKRELVAAISSGGNKYYADAVKGRFTISRDTLTKTMWLQMNNLKPEDTAMYYCAAEDYGLGQRSWGMGTQVTVSS
B13: M132 (VHH)
VHH: QVQLVESGGGLVQAGGSLSLSCVASGDAFSFDAMGWYRQFSGKVNERQLVVATSRDGRTAYGERVKGRFTASRDNSKNTLSLVMNNLQVEDTAIYYCAAGDDPKDYYWGQGTQVTVSS
B14: M137 (VHH)
VHH: QVQLVESGGGLVQAGGSLSLSCAASGSLSSINAMGWYRQLPEMRQLVATMGSDGKTYYADSVKGRFTISRDYAKYTVSLQMNNLRPEDTAIYYCAADRFGAPIHDVDYWGKGTLVTVSV
B15: M143 (VHH)
VHH: EVQLVESGGGLVQAGGSLRLSCSASEKTFSIKYMGYYRQGPGIERKLVATIDTDGKTWYADSVKGRFTISRENGENEIGLEMNRLKPEDTAMYYCAGETGTYPKPEYWGQGTQVTVSS
B16: M156 (VHH)
VHH: QVQLVESGGGLVQAGGSLRLSCAVSGISFEYYAIGWFRQAPGKEREAVSCTTSGTTSGGGVTDYADSLKGRFTISRDVAKNTVYLQMNNLTPEDTAVYYCAADIHCRGYVLFVPSDFGNWGQGTQVTVSS
B17: M169 (VHH)
VHH: EVQLVESGGGTVQPGESLRLSCEASGAVSTINAMGWYRQTPEMRKLVATMGSGGNTYYADSVKGRFTISRDFAGNTVDLQMNDLKPEDTGVYFCAADKFGADIKEVAYWGKGTLVTVSS
B18: M003 (VHH)
VHH: QVQLVESGGGLVQAGGSLRLSCTASGNIFSINAMGWYRQPPGKEWERELVATISSTNSDNTYYKESVKGRFTISTNTAKNTWYLQMNSLKPEDTAMYYCAAENFDRKDRYWAQGTQVTVSS
B19: M182 (VHH)
VHH: QVQLVESGGGSVQAGGSLTLSCAASGAVSSINAMGWYRQTPEKVRQLVATMGSGGNTYYAASVKGRFTISRDYAKNTVALQMNHLLPEDTAVYYCAADRFGADIREVDYWGKGTQVTVSS
B20: M191 (VHH)
VHH: QVQLVESGGGLVQAGGSLRLSCAASASMGSISNMGWYRQAPGKERGNERNLVATIGSDGRTYYADSVKGRFTISRDNVKNTMILQMNFLKPEDTAMYYCAVEDRQRPGTENYYWGQGTQVTVSS
B21: M197 (VHH)
VHH: EVQLVESGGGLVQAGGSLRLSCAASGSHFGLNVVGWYRQAPGKQRELVASIGNSGRTTDYADSVKGRFTISKDNAQNTIYLQMNNLKPEDTAMYRCHLRVSVERGYWGQGTQVTVSS
B22: M210 (VHH)
VHH: QVQLVESGGGLVQPGGSLRLSCAASGITLDNYAIAWFRQAPGKKREGVSCISSNGNTYYQPSVKGRFTIARDNAKNTVYLHMNNLNPEDTAVYYCQVGQFSSSTTPVQAMSVMSLYADWGQGTQVTVSS
B23: M224 (VHH)
VHH: QVQLVESGGGLVQPGGSLRLSCAASGFTFHYYAIGWFRQAPGKEREGVSCISSSGDSTWFSDSVKGRFTVSRDNAKNIVHLQMNNLKPEDTAVYYCAGTTRSGYVCYDAEPYDSWGQGTQVTVSS
B24: M344 (VHH)
VHH: QVQLVESGGGLVQSGGSLRLSCVASGSAFSFDAMGWYRQFSATRRERQLVVATSRDGRTYYADSVKGRFTATRDNSKNSLYLEMNSLKPEDTAIYYCAAGDDPKNYSWGQGTQVTVSS
B25: M2339 (VHH)
VHH: QLQLGASGGGLVQPGGSLRLSCALSGFTLRELDEFAIGWFRQAPGKEREGVSCISGTGGITHYADSVKGRFTISRDIAKTTVYLQMNSLNSEDTAVYYCAADERCTDRLIRPPTYWGQGTQVTVSS
B26: M004 (VHH)
VHH: EVQLVESGGGLVQAGGSLRLSCAASESISSIAYMGWYRRISEKERNLVATISSTGSTYYADSVKGRFTISRDNAKNTMYLQMNRLKPEDTAIYYCAASNKAYNDYDPDWGQGTQVTVSS
B27: YP218-IgG4 (antibody, from another filing, V domains shown)
VH: QQQLEESGGGLVKPEGSLTLTCKASGFDLGFYFYACWVRQAPGKGLEWIACIYTAGSGSTYYASWAKGRFTISKASSTTVTLQMTSLAAADTATYFCARSTANTRSTYYLNLWGPGTLVTVSS
VL: DVVMTQTPASVSEPVGGTVTIKCQASQRISSYLSWYQQKPGQRPKLLIFGASTLASGVPSRFKGSGSGTEYTLTISDLECADAATYYCQSYAYFDSNNWHAFGGGTEVVVRT
B28: M2339-z1-1 (antibody, part only; not given: constant region, IgG4, part only)
heavy, part: QLQLGASGGGLVQPGGSLRLSCALSGFTLRELDEFAIGWFRQAPGKEREGVSCISGTGGITHYADSVKGRFTISRDIAKNTVYLQMNSLNSEDTAVYYCAADERCTDRLIRPPTYWGQGTQVTVSS

What follows are binders tested against Negative control (amino acid sequence shown in SEQ ID NO: 2 in CN106046152A) (assay: ELISA, negative control well, TG1 supernatant).

First: B1
Second: B2
The ELISA (OD450) of the first is higher: 0.0072 OD450 for the first, 0.007 OD450 for the second.

Compared with B3, B4 is higher in ELISA (OD450): 0.0075 OD450 for the first, 0.0076 OD450 for the second.

Going from B5 to B6, the ELISA (OD450) rises from 0.0083 OD450 to 0.018 OD450.

First: B7
Second: B8
The ELISA (OD450) of the first is higher: 0.0184 OD450 for the first, 0.0099 OD450 for the second.

Compared with B9, B10 is lower in ELISA (OD450): 0.0074 OD450 for the first, 0.0071 OD450 for the second.

First: B11
Second: B12
The ELISA (OD450) of the first is lower: 0.0068 OD450 for the first, 0.007 OD450 for the second.

Compared with B13, B14 is higher in ELISA (OD450): 0.007 OD450 for the first, 0.0087 OD450 for the second.

Going from B15 to B16, the ELISA (OD450) falls from 0.0085 OD450 to 0.0074 OD450.

First: B17
Second: B18
The ELISA (OD450) of the first is lower: 0.007 OD450 for the first, 0.0104 OD450 for the second.

Going from B19 to B20, the ELISA (OD450) falls from 0.0075 OD450 to 0.0074 OD450.

Going from B21 to B22, the ELISA (OD450) falls from 0.0074 OD450 to 0.0071 OD450.

Going from B23 to B24, the ELISA (OD450) rises from 0.0074 OD450 to 0.0082 OD450.

Going from B25 to B26, the ELISA (OD450) falls from 0.0479 OD450 to 0.0085 OD450.

Each binder was assayed against MSLN·His protein (human) (UniProt Q13421) (assay: SPR (Biacore), antibody captured on protein A, MSLN·His as analyte).
Sequence of MSLN·His protein (human) (Q13421 other isoform, or with tags, fused parts or gaps limits assumed): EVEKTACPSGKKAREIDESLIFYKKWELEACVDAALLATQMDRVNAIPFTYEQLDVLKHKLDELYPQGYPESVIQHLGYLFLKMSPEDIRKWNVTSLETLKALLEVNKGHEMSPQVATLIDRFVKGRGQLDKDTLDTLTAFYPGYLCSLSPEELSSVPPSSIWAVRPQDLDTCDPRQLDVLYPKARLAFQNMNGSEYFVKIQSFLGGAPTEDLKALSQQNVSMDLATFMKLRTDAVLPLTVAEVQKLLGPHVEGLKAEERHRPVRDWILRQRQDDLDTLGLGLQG

Going from B27 to B28, the Kd rises from 3.1 nM to 2270 nM (730-fold). The first binds more tightly here.

Compared with B27, B28 is 6-fold higher in koff: 0.000123 s⁻¹ for the first, 0.000739 s⁻¹ for the second.

Going from B27 to B28, the kon falls from 40200 M⁻¹ s⁻¹ to 326 M⁻¹ s⁻¹ (120-fold).

These binders were tested against MSLN on SKOV3 and Aspc-1 tumor cells (UniProt Q13421) (assay: flow cytometry on SKOV3 tumor cells, anti-human IgG PE secondary, fitted curve).
Sequence of MSLN on SKOV3 and Aspc-1 tumor cells (Q13421 other isoform, or with tags, fused parts or gaps limits assumed): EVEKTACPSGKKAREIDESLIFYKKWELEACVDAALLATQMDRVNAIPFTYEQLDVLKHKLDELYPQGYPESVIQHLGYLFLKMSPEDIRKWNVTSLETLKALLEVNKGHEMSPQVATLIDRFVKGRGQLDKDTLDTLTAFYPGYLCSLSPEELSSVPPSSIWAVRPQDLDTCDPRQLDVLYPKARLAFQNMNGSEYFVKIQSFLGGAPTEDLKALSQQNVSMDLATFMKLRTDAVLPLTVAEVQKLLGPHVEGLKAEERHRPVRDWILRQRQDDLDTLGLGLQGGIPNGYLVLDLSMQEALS

For B27, the EC50 was 6.96 nM.

The binders below were run against MSLN on SKOV3 and Aspc-1 tumor cells (UniProt Q13421) (assay: flow cytometry on Aspc-1 tumor cells, anti-human IgG PE secondary, fitted curve).

B27 was tested, and the EC50 was 4.24 nM.

What follows are binders tested against segment III of MSLN expressed on HEK293T cells (UniProt Q13421) (assay: flow cytometry on HEK293T cells expressing MSLN segment III, anti-human IgG PE secondary, fitted curve).
Sequence of segment III of MSLN expressed on HEK293T cells (Q13421 495-606 limits assumed): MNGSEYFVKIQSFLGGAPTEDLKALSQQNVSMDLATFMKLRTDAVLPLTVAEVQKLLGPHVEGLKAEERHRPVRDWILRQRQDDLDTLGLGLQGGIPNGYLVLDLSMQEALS

With B27 the EC50 was 2.44 nM.
